# Data reported in US20240425590A1 (VIBRANT PHARMA, published 2024).
# Where a chain is given by its changes, count along the chain named.
# T1: human carcinoembryonic antigen-related cell adhesion molecule 5 (human, UniProt P06731 35-702)
# T1 sequence (looked up): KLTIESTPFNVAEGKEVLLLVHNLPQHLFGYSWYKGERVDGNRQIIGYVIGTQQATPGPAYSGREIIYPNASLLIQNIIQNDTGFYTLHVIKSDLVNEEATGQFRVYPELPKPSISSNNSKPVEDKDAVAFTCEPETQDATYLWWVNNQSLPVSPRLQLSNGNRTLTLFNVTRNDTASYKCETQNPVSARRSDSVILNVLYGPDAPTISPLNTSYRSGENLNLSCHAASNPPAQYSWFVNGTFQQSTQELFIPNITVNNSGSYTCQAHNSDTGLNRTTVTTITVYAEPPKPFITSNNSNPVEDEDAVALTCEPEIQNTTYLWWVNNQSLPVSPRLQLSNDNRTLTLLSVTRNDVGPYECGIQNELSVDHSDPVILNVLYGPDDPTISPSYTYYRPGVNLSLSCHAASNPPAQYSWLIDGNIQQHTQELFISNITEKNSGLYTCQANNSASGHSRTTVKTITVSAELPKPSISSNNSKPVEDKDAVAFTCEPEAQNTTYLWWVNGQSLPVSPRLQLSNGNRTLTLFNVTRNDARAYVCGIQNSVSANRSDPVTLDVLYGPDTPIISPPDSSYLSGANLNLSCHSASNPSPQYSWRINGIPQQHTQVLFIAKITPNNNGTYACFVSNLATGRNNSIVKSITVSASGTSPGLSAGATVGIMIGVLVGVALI
# B1: TA1-4N1+CEA-4O1 (bispecific antibody, human IgG4 S228P, F234A L235A)
# chain 1: EVKLLESGGGLVQPKGSLKLSCAASGFTFNTYAMNWVRQAPGKGLEWVARIRSKYNNYATYYADSVKDRFTISRDDSQSILYLQMNNLKTEDTAMYYCVRHGNFGNSYVSWFAYWGQGTLVTVSSGGGGSGGGGSGGGGSQAVVTQESALTTSPGETVTLTCRSSTGAVTTSNYANWVQEKPDHLFTGLIGGTNKRAPGVPARFSGSLIGDKAALTITGAQTEDEAIYFCALWYSNLWVFGGGTKVEIKRTESKYGPPCPPCPAPEAAGGPSVFLFPPKPKDTLMISRTPEVTCVVVDVSQEDPEVQFNWYVDGVEVHNAKTKPREEQFNSTYRVVSVLTVLHQDWLNGKEYKCKVSNKGLPSSIEKTISKAKGQPREPQVYTLPPCQEEMTKNQVSLWCLVKGFYPSDIAVEWESNGQPENNYKTTPPVLDSDGSFFLYSRLTVDKSRWQEGNVFSCSVMHEALHNHYTQKSLSLSL
# chain 2: EVQLVESGGGFVQAGESLTLSCTSSTLTFTPYRMAWYRQAPGKQRDLVADISSGDGRTTNYADFAKGRFTISRDNIKNTVFLRMTNLKPEDTAVYYCNTFVSFVGIARSWGQGTQVTVSSESKYGPPCPPCPAPEAAGGPSVFLFPPKPKDTLMISRTPEVTCVVVDVSQEDPEVQFNWYVDGVEVHNAKTKPREEQFNSTYRVVSVLTVLHQDWLNGKEYKCKVSNKGLPSSIEKTISKAKGQPREPQVCTLPPSQEEMTKNQVSLSCAVKGFYPSDIAVEWESNGQPENNYKTTPPVLDSDGSFFLVSRLTVDKSRWQEGNVFSCSVMHEALHNRFTQKSLSLSL
# B2: CEA-4N1+4O1-TA1 (bispecific antibody, human IgG4 S228P, F234A L235A)
# chain 1: B1 chain 2 with C251Y, S256C, S268W, A270L, V309Y, R337H, F338Y
# chain 2: ESKYGPPCPPCPAPEAAGGPSVFLFPPKPKDTLMISRTPEVTCVVVDVSQEDPEVQFNWYVDGVEVHNAKTKPREEQFNSTYRVVSVLTVLHQDWLNGKEYKCKVSNKGLPSSIEKTISKAKGQPREPQVCTLPPSQEEMTKNQVSLSCAVKGFYPSDIAVEWESNGQPENNYKTTPPVLDSDGSFFLVSRLTVDKSRWQEGNVFSCSVMHEALHNRFTQKSLSLSLGGGGSGGGGSEVKLLESGGGLVQPKGSLKLSCAASGFTFNTYAMNWVRQAPGKGLEWVARIRSKYNNYATYYADSVKDRFTISRDDSQSILYLQMNNLKTEDTAMYYCVRHGNFGNSYVSWFAYWGQGTLVTVSSGGGGSGGGGSGGGGSQAVVTQESALTTSPGETVTLTCRSSTGAVTTSNYANWVQEKPDHLFTGLIGGTNKRAPGVPARFSGSLIGDKAALTITGAQTEDEAIYFCALWYSNLWVFGGGTKVEIKRT
# B3: CEA-4N1+TA1-4O1 (bispecific antibody, human IgG4 S228P, F234A L235A)
# chain 1: B1 chain 2 with C251Y, S256C, S268W, A270L, V309Y, R337H, F338Y
# chain 2: B1 chain 1 with Y382C, C387S, W399S, L401A, Y440V, H468R, Y469F
# B4: 4N1-TA1+CEA-4O1 (bispecific antibody, human IgG4 S228P, F234A L235A)
# chain 1: B2 chain 2 with C131Y, S136C, S148W, A150L, V189Y, R217H, F218Y
# chain 2: B1 chain 2
# B5: 4N1-TA1+4O1-CEA (bispecific antibody, human IgG4 S228P, F234A L235A)
# chain 1: B2 chain 2 with C131Y, S136C, S148W, A150L, V189Y, R217H, F218Y
# chain 2: ESKYGPPCPPCPAPEAAGGPSVFLFPPKPKDTLMISRTPEVTCVVVDVSQEDPEVQFNWYVDGVEVHNAKTKPREEQFNSTYRVVSVLTVLHQDWLNGKEYKCKVSNKGLPSSIEKTISKAKGQPREPQVCTLPPSQEEMTKNQVSLSCAVKGFYPSDIAVEWESNGQPENNYKTTPPVLDSDGSFFLVSRLTVDKSRWQEGNVFSCSVMHEALHNRFTQKSLSLSLGGGGSGGGGSEVQLVESGGGFVQAGESLTLSCTSSTLTFTPYRMAWYRQAPGKQRDLVADISSGDGRTTNYADFAKGRFTISRDNIKNTVFLRMTNLKPEDTAVYYCNTFVSFVGIARSWGQGTQVTVSS
# B6: CEA-4N1-TA1+4O1 (bispecific antibody, human IgG4 S228P, F234A L235A)
# chain 1: EVQLVESGGGFVQAGESLTLSCTSSTLTFTPYRMAWYRQAPGKQRDLVADISSGDGRTTNYADFAKGRFTISRDNIKNTVFLRMTNLKPEDTAVYYCNTFVSFVGIARSWGQGTQVTVSSESKYGPPCPPCPAPEAAGGPSVFLFPPKPKDTLMISRTPEVTCVVVDVSQEDPEVQFNWYVDGVEVHNAKTKPREEQFNSTYRVVSVLTVLHQDWLNGKEYKCKVSNKGLPSSIEKTISKAKGQPREPQVYTLPPCQEEMTKNQVSLWCLVKGFYPSDIAVEWESNGQPENNYKTTPPVLDSDGSFFLYSRLTVDKSRWQEGNVFSCSVMHEALHNHYTQKSLSLSLGGGGSGGGGSEVKLLESGGGLVQPKGSLKLSCAASGFTFNTYAMNWVRQAPGKGLEWVARIRSKYNNYATYYADSVKDRFTISRDDSQSILYLQMNNLKTEDTAMYYCVRHGNFGNSYVSWFAYWGQGTLVTVSSGGGGSGGGGSGGGGSQAVVTQESALTTSPGETVTLTCRSSTGAVTTSNYANWVQEKPDHLFTGLIGGTNKRAPGVPARFSGSLIGDKAALTITGAQTEDEAIYFCALWYSNLWVFGGGTKVEIKRT
# chain 2: ESKYGPPCPPCPAPEAAGGPSVFLFPPKPKDTLMISRTPEVTCVVVDVSQEDPEVQFNWYVDGVEVHNAKTKPREEQFNSTYRVVSVLTVLHQDWLNGKEYKCKVSNKGLPSSIEKTISKAKGQPREPQVCTLPPSQEEMTKNQVSLSCAVKGFYPSDIAVEWESNGQPENNYKTTPPVLDSDGSFFLVSRLTVDKSRWQEGNVFSCSVMHEALHNRFTQKSLSLSL
# Molecular target: T1, human carcinoembryonic antigen-related …
# Experiment: cell-based or functional assay
row,Binder,EC50 (pM) of TCB-mediated killing of LS-174T target cells co-cultured with human PBMCs (viability read-out) [pM]
1,B1,3.1
2,B2,9
3,B3,0.005
4,B4,6
5,B5,6.7
6,B6,0.4
